± gives the uncertainty stated by the source.
Assay: self-splicing fitness, log relative to wild type (ln ratio); higher = more splicing; Tetrahymena group I intron in knt gene, E. coli kanamycin selection, DiMSum; sequences stand for … in CUCUCU…GGAGGGAAAAGUUAUCAGGCAUGCACCUGGUAGCUAGUCUUUAAACCAAUAGAUUGCAUCGGUUUAAAAGGCAAGACCGUCAAAUUGCGGGAAAGGGGUCAACAGCCGUUCAGUACCAAGUCUCAGGGGAAACUUUGAGAUGGCCUUGCAAAGGGUAUGGUAAUAAGCUGACGGACAUGGUCCUAACCACGCAGCCAAGUCCUAAGUCAACAGAUCUUCUGUUGAUAUGGAUGCAGUUCACAGACUAAAUGUCGGUCGGGGAAGAUGUAUUCUUCUCAUAAGAUAUAGUCGGACCUCUCCUUAAUGGGAGCUAGCGGAUGAAGUGAUGCAACACUGGAGCCGCUGGGAACUAAUUUGUAUGCGAAAGUAUAUUGAUUAGUUUUGGAGUACUCGUGGUCG
Procedure, shortened: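 Colonies from six replicate transformations of E. coli BL21(DE3) were pooled and amplicon-sequenced on an Illumina HiSeq 2500. The library placed an intron with all eight P1ex-region nucleotides randomised inside the knt kanamycin-resistance gene on pET-22b(+), and cells grew overnight at 37°C or 30°C on LB agar with or without 25 μg/mL kanamycin (plus 100 μg/mL carbenicillin, 50 μM IPTG, 0.2% rhamnose). Fitness is the DiMSum error-weighted combination of wild-type-normalised replicate fold changes, kanamycin versus none.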

Row | Sequence | self-splicing fitness (ln) (30 °C) | self-splicing fitness (ln) (37 °C)
1 | GUCCAGCAAUAUUACGCGUA | -0.0475 ± 0.068 | 0.185 ± 0.07
2 | GUCCAGCAAUAUUACGCUUU | -0.441 ± 0.06 | 0.678 ± 0.076
3 | GUCCAGCAAUAUUACGGAAC | -1.88 ± 0.12 | -0.802 ± 0.11
4 | GUCCAGCAAUAUUACGGCGC | -0.166 ± 0.15 | 0.208 ± 0.22
5 | GUCCAGCAAUAUUACGGCGG | -4.63 ± 0.42 | -1.4 ± 0.29
6 | GUCCAGCAAUAUUACGGGUC | -1.73 ± 0.13 | -1.7 ± 0.16
7 | GUCCAGCAAUAUUACGGUAA | -0.283 ± 0.086 | 0.647 ± 0.079
8 | GUCCAGCAAUAUUACGUCCA | -1.12 ± 0.077 | -0.579 ± 0.079
9 | GUCCAGCAAUAUUACGUGUG | -1.14 ± 0.064 | -0.529 ± 0.068
10 | GUCCAGCAAUAUUACGUUAG | -3.15 ± 0.11 | -1.19 ± 0.095
11 | GUCCAGCAAUAUUACGUUAU | -0.827 ± 0.058 | 0.329 ± 0.07
12 | GUCGAGCAAUAUUACGAGGG | – | -1.04 ± 0.21
13 | GUCGAGCAAUAUUACGAUGA | -1.6 ± 0.15 | -0.827 ± 0.14
14 | GUCGAGCAAUAUUACGCAGG | – | -3.05 ± 0.38
15 | GUCGAGCAAUAUUACGCCCC | -1.19 ± 0.37 | -1.01 ± 0.31
16 | GUCGAGCAAUAUUACGCCGG | – | -1.99 ± 0.41
17 | GUCGAGCAAUAUUACGCCGU | -1.32 ± 0.3 | -0.299 ± 0.38
18 | GUCGAGCAAUAUUACGCCUC | -1.51 ± 0.23 | -0.868 ± 0.33
19 | GUCGAGCAAUAUUACGGGCA | -2.65 ± 0.4 | -0.9 ± 0.18
20 | GUCGAGCAAUAUUACGGGCU | -2.06 ± 0.23 | -1.53 ± 0.28
21 | GUCGAGCAAUAUUACGGGGA | -2.91 ± 0.3 | -1.39 ± 0.24
22 | GUCGAGCAAUAUUACGGGUC | -2.68 ± 0.39 | –
23 | GUCGAGCAAUAUUACGGUGU | -1.98 ± 0.087 | -1.14 ± 0.11
24 | GUCGAGCAAUAUUACGUACA | -1.02 ± 0.15 | -0.719 ± 0.17
25 | GUCGAGCAAUAUUACGUAGG | -3.66 ± 0.18 | -2.08 ± 0.16

Row | Sequence | self-splicing fitness (ln) (30 °C) | self-splicing fitness (ln) (37 °C)
26 | GUCGAGCAAUAUUACGUAUG | -3.13 ± 0.32 | -0.147 ± 0.21
27 | GUCGAGCAAUAUUACGUAUU | -1.52 ± 0.29 | -0.948 ± 0.23
28 | GUCGAGCAAUAUUACGUGAG | -0.54 ± 0.076 | -0.266 ± 0.096
29 | GUCUAGCAAUAUUACGAAUA | -1.87 ± 0.17 | -0.494 ± 0.14
30 | GUCUAGCAAUAUUACGAGAC | -3.7 ± 0.24 | -2.34 ± 0.3
31 | GUCUAGCAAUAUUACGAUCU | -1.57 ± 0.12 | -0.315 ± 0.14
32 | GUCUAGCAAUAUUACGCUAC | -2.41 ± 0.47 | -2.57 ± 0.33
33 | GUCUAGCAAUAUUACGGACG | -0.561 ± 0.15 | -0.711 ± 0.2
34 | GUCUAGCAAUAUUACGGAUA | -1.26 ± 0.099 | -0.0363 ± 0.11
35 | GUCUAGCAAUAUUACGGCUA | – | -2.64 ± 0.33
36 | GUCUAGCAAUAUUACGGGAG | -1.87 ± 0.17 | -0.423 ± 0.11
37 | GUCUAGCAAUAUUACGGGUC | -2.14 ± 0.2 | -1.67 ± 0.17
38 | GUCUAGCAAUAUUACGGGUU | -1.92 ± 0.082 | -0.234 ± 0.083
39 | GUCUAGCAAUAUUACGGUCA | -0.592 ± 0.11 | -0.44 ± 0.12
40 | GUCUAGCAAUAUUACGGUCC | -2.44 ± 0.15 | -1.18 ± 0.13
41 | GUCUAGCAAUAUUACGGUCU | -2.19 ± 0.17 | -0.272 ± 0.16
42 | GUCUAGCAAUAUUACGUACG | -1.29 ± 0.12 | -0.709 ± 0.12
43 | GUCUAGCAAUAUUACGUAUC | -0.834 ± 0.08 | 0.353 ± 0.11
44 | GUCUAGCAAUAUUACGUCAA | -1.4 ± 0.067 | -0.997 ± 0.085
45 | GUCUAGCAAUAUUACGUCGU | -0.819 ± 0.096 | 0.377 ± 0.092
46 | GUCUAGCAAUAUUACGUGAC | -3.73 ± 0.33 | -0.257 ± 0.2
47 | GUCUAGCAAUAUUACGUGAG | -0.175 ± 0.075 | 0.0626 ± 0.093
48 | GUCUAGCAAUAUUACGUUAC | -0.99 ± 0.099 | -0.771 ± 0.096
49 | GUCUAGCAAUAUUACGUUCG | -0.604 ± 0.18 | -0.859 ± 0.17
50 | GUGAAGCAAUAUUACGAAUC | -0.696 ± 0.14 | -0.964 ± 0.22

Row | Sequence | self-splicing fitness (ln) (30 °C) | self-splicing fitness (ln) (37 °C)
51 | GUGAAGCAAUAUUACGACAU | 0.0507 ± 0.012 | 0.246 ± 0.032
52 | GUGAAGCAAUAUUACGAGAA | -1.97 ± 0.13 | -0.33 ± 0.13
53 | GUGAAGCAAUAUUACGAGCC | – | -2.76 ± 0.48
54 | GUGAAGCAAUAUUACGAGGU | -1.83 ± 0.29 | -1.36 ± 0.26
55 | GUGAAGCAAUAUUACGAGUA | -1.84 ± 0.13 | -1.47 ± 0.16
56 | GUGAAGCAAUAUUACGAGUC | -2.58 ± 0.17 | -0.63 ± 0.23
57 | GUGAAGCAAUAUUACGAUCA | -0.337 ± 0.11 | 0.465 ± 0.13
58 | GUGAAGCAAUAUUACGAUGU | -0.316 ± 0.064 | -0.0235 ± 0.094
59 | GUGAAGCAAUAUUACGAUUU | -0.586 ± 0.051 | 0.316 ± 0.091
60 | GUGAAGCAAUAUUACGCGUG | -0.812 ± 0.057 | -0.134 ± 0.061
61 | GUGAAGCAAUAUUACGCUCA | -1.35 ± 0.12 | -1.62 ± 0.17
62 | GUGAAGCAAUAUUACGCUGG | -1.42 ± 0.12 | -0.76 ± 0.13
63 | GUGAAGCAAUAUUACGGACA | 0.209 ± 0.092 | -0.366 ± 0.1
64 | GUGAAGCAAUAUUACGGAGG | -2.3 ± 0.23 | -2.49 ± 0.41
65 | GUGAAGCAAUAUUACGGAUC | -1.43 ± 0.086 | -0.286 ± 0.13
66 | GUGAAGCAAUAUUACGGCUG | -0.541 ± 0.082 | 0.0938 ± 0.11
67 | GUGAAGCAAUAUUACGGUAC | -0.508 ± 0.12 | -0.311 ± 0.15
68 | GUGAAGCAAUAUUACGGUUG | -1.71 ± 0.076 | -1.13 ± 0.11
69 | GUGAAGCAAUAUUACGUAAA | -1.41 ± 0.086 | -1.51 ± 0.12
70 | GUGAAGCAAUAUUACGUAAC | -1.99 ± 0.26 | -1.23 ± 0.31
71 | GUGAAGCAAUAUUACGUAGG | -2.29 ± 0.14 | -0.218 ± 0.15
72 | GUGAAGCAAUAUUACGUCGG | -0.498 ± 0.077 | 0.15 ± 0.1
73 | GUGAAGCAAUAUUACGUGAC | -2.77 ± 0.23 | -2.18 ± 0.27
74 | GUGAAGCAAUAUUACGUUAC | -2.88 ± 0.11 | -1.52 ± 0.13
75 | GUGAAGCAAUAUUACGUUAG | -1.06 ± 0.098 | 0.151 ± 0.14

Row | Sequence | self-splicing fitness (ln) (30 °C) | self-splicing fitness (ln) (37 °C)
76 | GUGAAGCAAUAUUACGUUGG | -2.81 ± 0.13 | -1.65 ± 0.12
77 | GUGAAGCAAUAUUACGUUUG | -2.25 ± 0.09 | -1.85 ± 0.12
78 | GUGCAGCAAUAUUACGACAA | -0.582 ± 0.066 | -0.153 ± 0.07
79 | GUGCAGCAAUAUUACGACAC | -1.57 ± 0.25 | -0.906 ± 0.2
80 | GUGCAGCAAUAUUACGACAG | -2.83 ± 0.14 | -1.71 ± 0.16
81 | GUGCAGCAAUAUUACGACUC | -0.543 ± 0.13 | 0.542 ± 0.19
82 | GUGCAGCAAUAUUACGACUG | -4.5 ± 0.39 | -2.84 ± 0.28
83 | GUGCAGCAAUAUUACGAGCU | -1.45 ± 0.062 | -0.353 ± 0.082
84 | GUGCAGCAAUAUUACGAGGA | -3.01 ± 0.2 | -1.74 ± 0.29
85 | GUGCAGCAAUAUUACGAGUA | -2.62 ± 0.34 | -1.8 ± 0.21
86 | GUGCAGCAAUAUUACGAUCU | -0.791 ± 0.052 | -0.194 ± 0.062
87 | GUGCAGCAAUAUUACGAUUA | -1.38 ± 0.13 | -0.611 ± 0.12
88 | GUGCAGCAAUAUUACGCAGA | -2.57 ± 0.46 | -1.53 ± 0.23
89 | GUGCAGCAAUAUUACGCGAA | -1.62 ± 0.1 | -0.106 ± 0.085
90 | GUGCAGCAAUAUUACGCGCG | -2.41 ± 0.13 | -1.98 ± 0.16
91 | GUGCAGCAAUAUUACGCGUA | -1.62 ± 0.13 | -0.278 ± 0.1
92 | GUGCAGCAAUAUUACGCGUU | -2.7 ± 0.11 | -1.18 ± 0.1
93 | GUGCAGCAAUAUUACGGAAA | – | -1.63 ± 0.34
94 | GUGCAGCAAUAUUACGGAGU | -3.05 ± 0.12 | -2.07 ± 0.11
95 | GUGCAGCAAUAUUACGGCCC | -0.475 ± 0.11 | -0.704 ± 0.17
96 | GUGCAGCAAUAUUACGGGCU | -1.95 ± 0.15 | -1.2 ± 0.12
97 | GUGCAGCAAUAUUACGUAAG | 0.0919 ± 0.087 | -0.00974 ± 0.1
